Patent US20190255141 (published 2019)
Ends that are not written are not given here.

Key:
human furin [1] = target: T1, human furin (human, UniProt P09958); test: other, pH 7.0, 37C
human furin [2] = target: T1, human furin; test: other, pH 7.0, 37C; remark: listed apart in the source

T1 sequence (P09958 108-715): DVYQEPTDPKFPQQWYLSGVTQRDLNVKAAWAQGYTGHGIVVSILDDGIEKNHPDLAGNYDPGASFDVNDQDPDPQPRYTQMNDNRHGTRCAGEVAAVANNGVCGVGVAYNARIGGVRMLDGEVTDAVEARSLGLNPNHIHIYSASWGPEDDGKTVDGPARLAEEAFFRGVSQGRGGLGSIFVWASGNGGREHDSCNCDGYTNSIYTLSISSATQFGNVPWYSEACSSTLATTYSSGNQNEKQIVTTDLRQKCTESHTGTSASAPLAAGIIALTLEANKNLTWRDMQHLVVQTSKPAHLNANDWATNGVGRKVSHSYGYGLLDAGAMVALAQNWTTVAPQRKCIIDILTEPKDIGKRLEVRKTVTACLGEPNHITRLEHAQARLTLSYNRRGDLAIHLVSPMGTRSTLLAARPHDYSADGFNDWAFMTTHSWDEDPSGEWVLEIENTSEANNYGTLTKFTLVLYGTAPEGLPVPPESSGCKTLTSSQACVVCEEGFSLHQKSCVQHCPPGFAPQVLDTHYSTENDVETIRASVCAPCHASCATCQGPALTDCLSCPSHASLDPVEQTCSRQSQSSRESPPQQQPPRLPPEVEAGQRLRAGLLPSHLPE

Binder | Ki (trypsin) [µM] | Ki (human furin [1]) [µM] | binding result (human furin [2])
KGGGK (not fully specified) [C16-KGGGK-C16] | 11.1 |  | 
Lys-Ala-Lys (not fully specified (N-terminus, C-terminus); printed as C16-KAK-C16) [C16-KAK-C16] | 15.2 | 0.54 | 
Lys-Lys (not fully specified (N-terminus, C-terminus); printed as C16-KK-C16) [C16-KK-C16] | 84.7 |  | no binding
Lys-Gly-Lys (not fully specified (N-terminus, C-terminus); printed as C16-KGK-C16) [C16-KGK-C16] | 41.6 |  | 
KAAAK (not fully specified (N-terminus, C-terminus); printed as C16-KAAAK-C16) [C16-KAAAK-C16] | 40.3 | 1.72 | 
KAAAAK (not fully specified) [C16-KAAAAK-C16] |  | 1.75 | 
KAAK (not fully specified (N-terminus, C-terminus); printed as C16-KAAK-C16) [C16-KAAK-C16] |  | 0.97 | 
